Results from patent publication US20250041437A1, “HUMANIZED MUC1 ANTIBODY AND ANTIBODY DRUG CONJUGATE” (Sun Pharma Advanced Research Company Limited, priority 2023, published 2025).
Substitutions are numbered along the chain they refer to.

Key:
[1] = tested on: COLO-357 pancreatic carcinoma cells; experiment: Growth inhibition of human cancer cell lines, COLO-357; details: COLO-357, high MUC1-SEA expressing
[2] = molecular target: T1, human MUC1-expressing SKOV3 cell line (Homo sapiens, UniProt P15941); experiment: Binding by flow cytometry on SKOV3 cell line
T1 construct: endogenous in cells; host or cells: SKOV3, COLO357, HT29 (human cancer cell lines)
T1 sequence (P15941 24-1255): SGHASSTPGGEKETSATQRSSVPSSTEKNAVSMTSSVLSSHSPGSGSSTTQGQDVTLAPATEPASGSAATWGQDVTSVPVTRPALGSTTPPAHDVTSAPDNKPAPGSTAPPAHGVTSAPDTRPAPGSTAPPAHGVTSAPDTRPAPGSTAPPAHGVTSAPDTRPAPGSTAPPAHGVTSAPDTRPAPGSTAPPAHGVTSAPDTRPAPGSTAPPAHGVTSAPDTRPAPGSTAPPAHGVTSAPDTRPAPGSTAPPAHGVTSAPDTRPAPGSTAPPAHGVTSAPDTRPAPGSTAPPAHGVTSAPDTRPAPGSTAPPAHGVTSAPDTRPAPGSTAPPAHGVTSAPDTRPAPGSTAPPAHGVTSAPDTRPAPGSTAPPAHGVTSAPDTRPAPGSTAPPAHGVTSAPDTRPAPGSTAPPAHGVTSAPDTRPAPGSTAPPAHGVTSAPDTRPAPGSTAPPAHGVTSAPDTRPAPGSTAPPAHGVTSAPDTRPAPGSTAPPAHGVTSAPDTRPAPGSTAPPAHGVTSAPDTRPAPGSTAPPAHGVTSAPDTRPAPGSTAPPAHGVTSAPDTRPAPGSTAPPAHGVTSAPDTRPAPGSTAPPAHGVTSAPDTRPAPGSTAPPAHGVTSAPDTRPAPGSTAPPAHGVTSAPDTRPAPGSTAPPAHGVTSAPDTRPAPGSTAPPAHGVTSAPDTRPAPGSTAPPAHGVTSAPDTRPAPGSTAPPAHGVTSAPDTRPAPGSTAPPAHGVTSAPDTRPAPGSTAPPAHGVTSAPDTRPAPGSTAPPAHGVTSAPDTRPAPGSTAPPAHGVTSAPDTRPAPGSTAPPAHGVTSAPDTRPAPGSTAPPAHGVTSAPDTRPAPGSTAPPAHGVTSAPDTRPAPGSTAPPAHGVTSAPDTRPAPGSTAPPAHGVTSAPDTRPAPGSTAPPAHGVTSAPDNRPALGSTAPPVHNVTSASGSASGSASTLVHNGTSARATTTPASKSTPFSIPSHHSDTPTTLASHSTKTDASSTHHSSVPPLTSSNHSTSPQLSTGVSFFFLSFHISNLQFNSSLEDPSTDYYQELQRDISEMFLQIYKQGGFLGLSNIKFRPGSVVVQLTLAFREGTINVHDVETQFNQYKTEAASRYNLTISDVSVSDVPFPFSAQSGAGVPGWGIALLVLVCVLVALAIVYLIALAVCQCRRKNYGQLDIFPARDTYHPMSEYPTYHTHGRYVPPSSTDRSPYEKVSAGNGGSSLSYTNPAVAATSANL
Excerpt: The CDR residues from mouse anti-MUC1 antibody (m5F3) VH- (SEQ ID NO: 1) and VL- (SEQ ID NO: 2) domains were identified according to the three antibody numbering systems and grafted onto the human framework region sequences VH- (SEQ ID NO: 3) and VL- (SEQ ID NO: 4) domains respectively. CDRs from 5F3 were chemically synthesized and subsequently cloned into mammalian expression vectors. The expression vectors with humanized 5F3 heavy chain and light chain were named as SP66-HC and SP66-LC respectively. The VH domain of SP66 is SEQ ID NO: 5, and the VL domain of SP66 is SEQ ID NO: 6. The antibody expressed with SP66-HC and SP66-LC was named as SP66. SP66 was transiently expressed in CHO cells and purified by Protein-A affinity chromatography and evaluated for its binding to the human MUC1 SEA domain using flow cytometry on the human MUC1-expressing SKOV3 cell line (FIG. 1).
Dose dependent binding of surface MUC1 expression on human cancer cells using flow cytometer: Human cancer cell lines (COLO357, HT29 and SKOV3) or mouse cancer cell line expressing human MUC1 (DA3-TM) were harvested enzymatically using 0.25% Trypsin and 0.2% EDTA in Dulbecco's Phosphate Buffered Saline (D-PBS), washed with excess cell culture media and re-suspended at a cell density of 1-2×10^6/mL in the cell-line specific cell culture media. […]

[3] = tested on: HT-29 cells; experiment: Growth inhibition of human cancer cell lines, HT-29; format: cell-based; details: HT-29, no MUC1 expressing
Description: (§1) Human cancer cell lines (such as Colo357, HT29, SKOV3, BxPC3 and T47D) were seeded at 5000 cells/well in a 96-well plate flat bottom clear plate and allowed to adhere overnight. Next day, antibody/ADCs were added to these cells at the mentioned concentration or at a mentioned concentration range. Post 5-7 days of treatment, 20 μl of presto blue dye was added to wells and absorbance was recorded at 570 nm (600 nm reference wavelength). Percent survival was calculated against wells containing untreated cells in complete media and IC50 was calculated in Graphpad Prism.

[4] = tested on: SKOV-3 cells; experiment: Growth inhibition of human cancer cell lines, SKOV-3; format: cell-based; details: SKOV-3, moderate MUC1 expressing
Description: as §1

[5] = molecular target: T2, recombinant human MUC1-SEA (Homo sapiens, UniProt P15941); experiment: Binding strength by Surface Plasmon Resonance (SPR); details: Table 2
T2 construct: on recombinant human MUC1-SEA on SPR; purchased Acrobiosystems MU1-H52H9
T2 sequence (P15941 1039-1148 limits assumed): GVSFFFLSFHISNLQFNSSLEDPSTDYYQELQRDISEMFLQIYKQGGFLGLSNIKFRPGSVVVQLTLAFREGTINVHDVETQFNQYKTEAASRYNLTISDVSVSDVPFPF
Description: Binding strength assessment using Surface Plasmon Resonance (SPR): MUC1 antigen (Acrobiosystems, Cat: MU1-H52H9) was captured on the anti-His immobilized on CM5 chip at 5 μl/min flow rate for 60 s. Post this concentration range of 0-50 nM of antibody or ADC is passed over MUC1 antigen at a flow rate of 30 μl/min flow rate for 120 s, keeping dissociation time of 1800 s at 25°. The dose response generated is evaluated on BIAevaluation software for the calculation of affinity of antibody to antigen as measured by dissociation constant (KD).

[6] = molecular target: T3, human MUC1 expressing DA3-TM cell line (Homo sapiens, UniProt P15941); experiment: Dose dependent binding by flow cytometry on DA3-TM cell line; details: MUC1 positive DA3-TM cell line
T3 construct: expressed in transfected cells; host or cells: DA3-TM (mouse cancer cell line)
T3 sequence (P15941 24-1255): as the sequence (P15941 24-1255) above
Excerpt: Dose dependent binding of surface MUC1 expression on human cancer cells using flow cytometer: Human cancer cell lines (COLO357, HT29 and SKOV3) or mouse cancer cell line expressing human MUC1 (DA3-TM) were harvested enzymatically using 0.25% Trypsin and 0.2% EDTA in Dulbecco's Phosphate Buffered Saline (D-PBS), washed with excess cell culture media and re-suspended at a cell density of 1-2×10^6/mL in the cell-line specific cell culture media. The anti-MUC1-SEA mAb (chimeric or humanized IgG)/ADC or the reference IgG antibody/ADC were added to cells at a concentration range of 0-50 nM. The cells were maintained at 4° C. for 1 hour and washed with the excess cell culture media. These cells were further stained with goat anti-human IgG, Fcγ, conjugated with Alexa Fluor 647 (Jackson Immuno Research, West Grove, PA, USA) for 1 hour at 4° C. The concentration for goat anti-human IgG, Fcγ was as per the manufacturer's instructions. Cells were further washed with the excess cell culture media and re-suspended in 100 μl of cell culture media. Cell-associated fluorescence was detected and recorded using flow cytometry (Beckman Coulter, Cytoflex). The mean intensity of fluorescence was obtained from FlowJo software and graph was plotted in Graphpad prism of concentration versus mean intensity of fluorescence.

B1: SP66: CDR-grafted humanized 5F3; VH SEQ ID NO: 5, VL SEQ ID NO: 6 (antibody, V domains shown)
VH: EIQLVQSGAEVKKPGSSVKVSCKASGHSITRGSSWHWMRQAPGQGLEWIGYIHYGGGTSYNPSLKSRATLTVDTSTNTAYMELSSLRSEDTAFYFCARYSYDITYRWFFDVWGQGTLVTVSS
VL: DIQMTQSPSTLSASVGDRVTITCRASQNIGTSIHWFQQKPGKAPKLLMYRASESISGVPSRFSGSGSGTEFTLTISSLQPDDFATYYCQQNNNWPLTFGQGTKVEVK
For B1, the “cytotoxic effect / growth inhibition (in words)” value [1] was “No growth inhibition”, the “binding by flow cytometry (in words)” value [2] was “unable to bind” and the “cytotoxic effect / growth inhibition (in words)” value [3] was “No growth inhibition”. For the same molecule, the “cytotoxic effect / growth inhibition (in words)” value [4] was “No growth inhibition”.

B2: HM3 LM3: variant of SP66; VH HM3 SEQ ID NO: 9, VL LM3 SEQ ID NO: 14 (antibody, V domains shown)
VH: B1 VH with A24V, S25T, V72R
VL: B1 VL with F36Y, M48I, Y49K, R50Y
In the case of B2, the kd [5] is reported as 0.00347 s⁻¹.

B3: HM4 LM2: variant of SP66; VH HM4 SEQ ID NO: 10, VL LM2 SEQ ID NO: 13 (antibody, V domains shown)
VH: B1 VH with A24V, S25T, V72R, A79F
VL: B1 VL with F36Y, M48I, Y49K
In the case of B3, the kd [5] is reported as 0.000261 s⁻¹.

B4: HM4 LM3: variant of SP66; VH HM4 SEQ ID NO: 10, VL LM3 SEQ ID NO: 14 (antibody, V domains shown)
VH: B1 VH with A24V, S25T, V72R, A79F
VL: B1 VL with F36Y, M48I, Y49K, R50Y
B4 was tested, and the kd [5] was 0.000238 s⁻¹.

B5: HM5 LM2: variant of SP66; VH HM5 SEQ ID NO: 11, VL LM2 SEQ ID NO: 13 (antibody, V domains shown)
VH: B1 VH with A24V, S25T, A68I, L70I, V72R, A79F
VL: B1 VL with F36Y, M48I, Y49K
Molecule B5 has a kd [5] of 0.000213 s⁻¹.

B6: HM5 LM3: variant of SP66; VH HM5 SEQ ID NO: 11, VL LM3 SEQ ID NO: 14 (antibody, V domains shown)
VH: B1 VH with A24V, S25T, A68I, L70I, V72R, A79F
VL: B1 VL with F36Y, M48I, Y49K, R50Y
For B6, the kd [5] was 0.000198 s⁻¹.

B7: chi 5F3: chimeric anti-MUC1 SEA antibody of WO 2021/186427; variable regions SEQ ID NOs: 42 and 43; parent of the humanized antibodies (antibody, V domains shown)
VH: MRVLILLCLFTAFPGVLSDVQVQESGPDLVKPSQSLSLTCTVTGHSITRGSSWHWIRQFPGNKLEWMGYIHYGGGTSYNPSLKSRISITRDTSKNQFFLQLNSVTTEDTATFFCARYSYDITYRWFFDVWGAGTTVIVSS
VL: MVSTPQFLVFLLFWIPASRGDILLTQSPAILSVSPGERVSFSCRASQNIGTSIHWYQQRKNGSPRLLIKYASESISGIPSRFSGSGSGTDFTLSINSVESEDMADYYCQQNNNWPLTFGAGTKLELK
notes: chimeric anti-MUC1 SEA antibody of WO 2021/186427; parent of the humanized antibodies
For B7, the Kd [5] was 0.0427 nM, the kd [5] was 0.000188 s⁻¹ and the Kd [6] was 1 ± 0.1 nM.

B8: HM2 LM2: variant of SP66; VH HM2 SEQ ID NO: 8, VL LM2 SEQ ID NO: 13 (antibody, V domains shown)
VH: B1 VH with A24V, S25T, A68I, L70I, V72R
VL: B1 VL with F36Y, M48I, Y49K
In the case of B8, the kd [5] is reported as 0.000255 s⁻¹.

B9: HM2 LM3: variant of SP66; VH HM2 SEQ ID NO: 8, VL LM3 SEQ ID NO: 14 (antibody, V domains shown)
VH: B1 VH with A24V, S25T, A68I, L70I, V72R
VL: B1 VL with F36Y, M48I, Y49K, R50Y
With B9 the kd [5] was 0.000188 s⁻¹.

B10: HM3 LM2: variant of SP66; VH HM3 SEQ ID NO: 9, VL LM2 SEQ ID NO: 13 (antibody, V domains shown)
VH: B1 VH with A24V, S25T, V72R
VL: B1 VL with F36Y, M48I, Y49K
B10 was tested, and the kd [5] was 0.000492 s⁻¹.
